Where only a bound is given, the exact number is not on record here.

Data on 16 sequences can be found in the Immune Epitope Database (IEDB).

Experiment [1] has as its target HLA-A*11:01. Nature of the experiment: IEDB peptide-MHC binding, purified MHC/competitive/fluorescence; ≥ and ≤ were set here for values at or beyond the usual limits of such assays. The note with it: source organism: Sudan ebolavirus.
For experiment [2], the target named is HLA-A*31:01. Nature of the experiment: IEDB peptide-MHC binding, purified MHC/competitive/fluorescence; filed as Kd, often an IC50 or EC50 that approximates it; ≥ and ≤ were set here for values at or beyond the usual limits of such assays.
For experiment [3], the target named is HLA-A*03:01. Description: IEDB peptide-MHC binding, purified MHC/direct/fluorescence; filed as Kd, often an IC50 or EC50 that approximates it; ≥ and ≤ were set here for values at or beyond the usual limits of such assays.
In experiment [4] the target is HLA-A*11:01. The description is as above.
Experiment [5] concerns the target HLA-B*57:01. The experiment is described as above.
Experiment [6] concerns the target HLA-B*15:17. The description is as above.
In experiment [7] the target is HLA-B*57:01. Description: IEDB peptide-MHC binding, purified MHC/competitive/radioactivity; filed as Kd, often an IC50 or EC50 that approximates it; ≥ and ≤ were set here for values at or beyond the usual limits of such assays.
Experiment [8] deals with HLA-B*58:01. The description is as above.
Experiment [9] has as its target HLA-A*68:02. Description: IEDB peptide-MHC binding, purified MHC/direct/fluorescence; filed as Kd, often an IC50 or EC50 that approximates it; ≥ and ≤ were set here for values at or beyond the usual limits of such assays. The note with it: source organism: Giardia lamblia ATCC 50803.
The target of experiment [10] is HLA-B*07:02. Described as above. The note with it: source organism: Giardia lamblia ATCC 50803.
Experiment [11] addresses HLA-B*46:01. The description is as above. To be noted: source organism: Giardia lamblia ATCC 50803.
Experiment [12] addresses HLA-A*31:01. The description is as above. The note with it: source organism: Giardia lamblia ATCC 50803.
The target in experiment [13] is HLA-B*58:01. The description is as above.
The target of experiment [14] is HLA-B*27:05. The experiment is described as above. The note with it: source organism: Giardia lamblia ATCC 50803.
The target in experiment [15] is HLA-A*69:01. Described as above.
Experiment [16] concerns the target HLA-B*40:01. The experiment is described as above. The note with it: source organism: Giardia lamblia ATCC 50803.
The target in experiment [17] is HLA-A*01:01. Described as above. To be noted: source organism: Giardia lamblia ATCC 50803.
For experiment [18], the target named is HLA-B*18:01. Described as above. To be noted: source organism: Giardia lamblia ATCC 50803.
Experiment [19] has as its target HLA-A*02:01. The experiment is described as above.
The target of experiment [20] is HLA-B*15:01. Described as above. To be noted: source organism: Giardia lamblia ATCC 50803.
In experiment [21] the target is HLA-B*48:01. The description is as above. To be noted: source organism: Giardia lamblia ATCC 50803.
The target in experiment [22] is HLA-A*02:12. The experiment is described as above. To be noted: source organism: Ravn virus - Ravn, Kenya, 1987.
In experiment [23] the target is HLA-A*32:01. Description: IEDB peptide-MHC binding, purified MHC/competitive/radioactivity; filed as Kd, often an IC50 or EC50 that approximates it; ≥ and ≤ were set here for values at or beyond the usual limits of such assays. To be noted: source organism: Dengue virus 2 Peru/IQT2913/1996.
Setting [24] is: source organism: Rickettsia massiliae.
Where [25] appears, read: source organism: Yellow fever virus 1899/81.
Where [26] appears, read: source organism: Dengue virus 1 Brazil/97-11/1997.
Setting [27] is: source organism: Giardia lamblia ATCC 50803.
Setting [28] is: source organism: Dengue virus 1 Singapore/S275/1990.
Setting [29] is: source organism: Dengue virus 2 Jamaica/1409/1983.
Where [30] appears, read: source organism: Vibrio vulnificus.
The mark [31] stands for this setting: source organism: Mammarenavirus juninense.
[32] abbreviates: source organism: Marburg virus - Musoke, Kenya, 1980.
[33] abbreviates: source organism: Mammarenavirus lassaense.
Where [34] appears, read: source organism: Dengue virus 2 Peru/IQT2913/1996.
Where [35] appears, read: source organism: Dengue virus 4 Philippines/H241/1956.

The term IC50 denotes the point on the concentration scale where inhibition reaches its midpoint. Read a low IC50 as higher potency. Regarding NPLPNQDND, in experiment [1], the IC50 is at least 163000 nM.
Broadly, the Kd is a measure of binding affinity in units of concentration. For MGFGHRIYK, the Kd was found to be 1.43 nM in experiment [2] (source organism: Dictyostelium discoideum), 3.7 nM in experiment [3] (setting [24]) and 3.2 nM in [4] (setting [24]).
As to KSAHGSPTF, the equilibrium dissociation constant (Kd) in experiment [5] (setting [25]) is 1260 nM; in [6] (setting [25]), 4.9 nM.
As to WSSFKKNGAI, the dissociation constant (Kd) turned out to be 1020 nM in experiment [7] (setting [26]) and 5310 nM in experiment [8] (setting [26]).
For GSSIGKMFEA the same measures were 853 nM and 3000 nM.
Consider RIGGVLIFR, for which the Kd was at least 20000 nM in experiment [9]; at least 20000 nM in experiment [10]; at least 20000 nM in experiment [11]; at least 20000 nM in experiment [5] (setting [27]); 69.5 nM in experiment [3] (setting [27]); 11 nM in experiment [12]. Further, the Kd was 6000 nM in experiment [13] (setting [27]); at least 5000 nM in [14]; at least 20000 nM in experiment [15] (setting [27]); at least 20000 nM in experiment [16]; at least 20000 nM in [17]; at least 20000 nM in experiment [18]. The Kd is at least 20000 nM in experiment [19] (setting [27]), 32.5 nM in [4] (setting [27]), at least 20000 nM in experiment [20] and at least 20000 nM in experiment [21].
Regarding KTSVGVNMCT, the Kd turned out to be 8160 nM in [7] (setting [28]) and 1810 nM in experiment [8] (setting [28]).
As to NSSVNVSLTA, the Kd amounted to 433 nM in experiment [7] (setting [29]) and 10 nM in [8] (setting [29]).
ASILSRMAY: the Kd in [2] (source organism: Vibrio vulnificus YJ016) is at least 20000 nM; in experiment [3] (setting [30]), 974 nM; in [4] (setting [30]), 7.4 nM.
As to KLNKFISPK, the dissociation constant Kd in experiment [2] (setting [31]) worked out at 26 nM; in experiment [3] (setting [31]) it was 222 nM.
Turning to ALKEAIEMV, the Kd in experiment [22] was 4 nM; in experiment [15] (setting [32]) it was 1800 nM; in [19] (setting [32]) it was 127 nM.
On to RTLGSFTWF, for which the Kd was 13.8 nM in experiment [13] (setting [33]) and at most 1 nM in [6] (setting [33]).
KSYAQMWSL: the results for the Kd in experiment [7] (setting [34]), in experiment [8] (setting [34]) and in experiment [23] were 5.58 nM, 3.99 nM and 6.3 nM, respectively.
FTSVGKLVHQ: the Kd was determined as 2390 nM in experiment [7] (setting [26]) and 1360 nM in [8] (setting [26]).
With AVFVDENQW, the dissociation constant Kd in experiment [7] (setting [26]) is 0.913 nM.
In the case of TASGKLVTQW, the Kd in experiment [7] (setting [35]) stood at 1090 nM; in experiment [8] (setting [35]), 22.6 nM.
